One assay deals with T1, PBP1B D160C/K437C (E. coli, UniProt P02919 46-844, D160C | K437C).
T1 construct: PBP1B, E. coli, residues 46-844, made by mutagenesis of pDML924; Disulphide bridge between C160 and C437 (no free thiol groups detected); reduced in the SPR assay with 2 mM TCEP; source: E. coli BL21(DE3), purified (membrane extract, HisTrap, thrombin, HiTrap SP ion exchange)
T1 sequence (looked up): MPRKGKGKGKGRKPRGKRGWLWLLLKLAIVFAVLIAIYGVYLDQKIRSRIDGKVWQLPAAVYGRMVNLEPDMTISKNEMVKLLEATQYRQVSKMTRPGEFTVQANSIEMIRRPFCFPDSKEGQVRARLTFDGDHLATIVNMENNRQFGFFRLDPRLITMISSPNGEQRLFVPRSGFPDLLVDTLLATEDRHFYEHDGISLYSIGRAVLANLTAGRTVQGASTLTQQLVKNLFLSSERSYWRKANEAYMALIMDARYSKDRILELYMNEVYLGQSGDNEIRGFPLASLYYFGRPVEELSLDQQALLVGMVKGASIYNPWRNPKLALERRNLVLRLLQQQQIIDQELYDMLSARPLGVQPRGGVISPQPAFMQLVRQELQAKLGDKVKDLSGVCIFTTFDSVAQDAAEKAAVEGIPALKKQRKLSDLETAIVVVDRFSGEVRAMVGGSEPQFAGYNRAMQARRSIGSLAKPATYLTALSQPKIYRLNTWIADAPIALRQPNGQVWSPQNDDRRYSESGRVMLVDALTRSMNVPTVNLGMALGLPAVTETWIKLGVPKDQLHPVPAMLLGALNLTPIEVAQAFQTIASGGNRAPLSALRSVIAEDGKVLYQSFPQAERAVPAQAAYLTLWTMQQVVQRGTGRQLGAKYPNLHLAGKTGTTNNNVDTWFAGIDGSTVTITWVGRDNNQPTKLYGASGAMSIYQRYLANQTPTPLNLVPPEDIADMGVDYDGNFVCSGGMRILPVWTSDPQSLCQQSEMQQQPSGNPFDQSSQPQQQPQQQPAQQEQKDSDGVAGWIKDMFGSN
The experiment in a line: SPR; reducing conditions: 2 mM TCEP in the SPR running buffer, immobilised PBP1B versions incubated in it for 30 min before the assay; LpoB injected from 19.5 nM to 10 μM; apparent KD. To be noted: both partners purified. In general terms: Surface plasmon resonance follows binding to a sensor surface in real time, without labels.

For the next assay, the target named is T2, PBP1B R157A (E. coli, UniProt P02919 46-844, R157A).
T2 construct: PBP1B, E. coli, residues 46-844, made by mutagenesis of pDML924; source: E. coli BL21(DE3), purified (membrane extract, HisTrap, thrombin, HiTrap SP ion exchange)
T2 sequence (looked up): T1 sequence (looked up) with R112A, C115D, C392K
The description is as above. To be noted: both partners purified.

Assay [1] concerns the target T3, PBP1B (wild type, PBP1B^46-844) (E. coli, UniProt P02919 46-844).
T3 sequence (looked up): T1 sequence (looked up) with C115D, C392K
As to the kind of experiment: cell-based or functional assay.

Numbering of substitutions follows the chain as printed.

B1: LpoB (natural protein, E. coli)
chain: VGQREPAPVEEVKPAPEQPAEPQQPVPTVPSVPTIPQQPGPIEHEDQTAPPAPHIRHYDWNGAMQPMVSKMLGADGVTAGSVLLVDSVNNRTNGSLNAAEATETLRNALANNGKFTLVSAQQLSMAKQQLGLSPQDSLGTRSKAIGIARNVGAHYVLYSSASGNVNAPTLQMQLMLVQTGEIIWSGKGAVSQQ
notes: LpoB, E. coli; also called lipoprotein LpoB; source: E. coli BL21(DE3), purified (HisTrap, Superdex 200), as in Egan et al. 2014
Turning to B1, the Kd came to 2040 nM with PBP1B D160C/K437C and 357 nM in the assay with PBP1B R157A. In assay [1], the “GTase rate of WT PBP1B with LpoB relative to the basal rate of WT PBP1B (continuous fluorescence assay, dansylated lipid II; 0.5 μM PBP1B, 2 μM LpoB)” value was 10.2 fold.

Source of the values: publication PMC6220978, “Induced conformational changes activate the peptidoglycan synthase PBP1B” (Molecular Microbiology, 2018).
